Paper PMC6949242

Tests used:
FOXO1 DNA-binding domain [1] = target: FOXO1 DNA-binding domain (UniProt Q12778); assay: ITC; settings: FOXO1 alone; 50 mM Bis-Tris, 150 mM NaCl, pH 6.5; ITC at 25 °C; NMR 1H-15N HSQC with 100 uM FOXO1
[2] = target: FOXO1 DNA-binding domain;ETS1 DNA-binding domain (UniProt Q12778+P14921); assay: ITC; settings: FOXO1 titrated into equimolar ETS1 + DNA; Kd of FOXO1; 50 mM Bis-Tris, 150 mM NaCl, pH 6.5; ITC at 25 °C; NMR 1H-15N HSQC with 100 uM FOXO1
[3] = target: FOXO1 DNA-binding domain;ETS1 Y410A Y410A (UniProt Q12778+P14921); assay: ITC; settings: FOXO1 titrated into equimolar ETS1 Y410A + DNA; Kd of FOXO1; 50 mM Bis-Tris, 150 mM NaCl, pH 6.5; ITC at 25 °C; NMR 1H-15N HSQC with 100 uM FOXO1
[4] = target: FOXO1 DNA-binding domain;ETS1 R409H R409H (UniProt Q12778+P14921); assay: ITC; settings: FOXO1 titrated into equimolar ETS1 R409H + DNA; Kd of FOXO1; 50 mM Bis-Tris, 150 mM NaCl, pH 6.5; ITC at 25 °C; NMR 1H-15N HSQC with 100 uM FOXO1
[5] = target: FOXO1 DNA-binding domain;ETS1 R409A R409A (UniProt Q12778+P14921); assay: ITC; settings: FOXO1 titrated into equimolar ETS1 R409A + DNA; Kd of FOXO1; 50 mM Bis-Tris, 150 mM NaCl, pH 6.5; ITC at 25 °C; NMR 1H-15N HSQC with 100 uM FOXO1
FOXO1 DNA-binding domain [6] = target: FOXO1 DNA-binding domain (UniProt Q12778); assay: NMR; settings: FOXO1 alone, 50 mM Bis-Tris, 150 mM NaCl, pH 6.5, ITC at 25 °C, NMR 1H-15N HSQC with 100 uM FOXO1

Row | Sequence | Kd (FOXO1 DNA-binding domain [1]) | Kd [2] | Kd [3] | Kd [4] | Kd [5] | Kd (FOXO1 DNA-binding domain [6]; fit of residue G161 peak) | Kd (FOXO1 DNA-binding domain [6]; mean of selected peaks, fast exchange)
1 | CTGTAAACAGGAAGTGGAG (double strand) [ω-none] | 24 nM | 26 nM | – | – | – | – | –
2 | AAAACAACAGGAAGTATTT (double strand) [ω] | 352 nM | 44 nM | 313 nM | 67 nM | 151 nM | – | –
3 | TGACGCACCGGAAGTTAGG (double strand) [ω-high] | – | – | – | – | – | 122 µM | 167 µM
